Laboratory results reported in patent publication US8349320.

How the values were obtained:
[1] = target: human HVEM (wild type) expressed on cells (human) (UniProt Q92956); assay: flow cytometry saturation binding on 293T cells transfected with wild type HVEM
[2] = target: human HVEM mutant K64A expressed on cells (human) (UniProt Q92956); assay: flow cytometry saturation binding on 293T cells transfected with mutant HVEM
[3] = target: human HVEM mutant S58A expressed on cells (human) (UniProt Q92956); assay: as above
[4] = target: human HVEM mutant E76A expressed on cells (human) (UniProt Q92956); assay: as above
[5] = target: human HVEM mutant R62A expressed on cells (human) (UniProt Q92956); assay: as above
[6] = target: human HVEM mutant R113A expressed on cells (human) (UniProt Q92956); assay: as above
[7] = target: human HVEM mutant E65A expressed on cells (human) (UniProt Q92956); assay: as above
[8] = target: human HVEM mutant Y61F expressed on cells (human) (UniProt Q92956); assay: as above
[9] = target: human HVEM mutant Y47F expressed on cells (human) (UniProt Q92956); assay: as above
Sequence of human HVEM mutant Y47F expressed on cells (human) (Q92956 39-283 Y47F): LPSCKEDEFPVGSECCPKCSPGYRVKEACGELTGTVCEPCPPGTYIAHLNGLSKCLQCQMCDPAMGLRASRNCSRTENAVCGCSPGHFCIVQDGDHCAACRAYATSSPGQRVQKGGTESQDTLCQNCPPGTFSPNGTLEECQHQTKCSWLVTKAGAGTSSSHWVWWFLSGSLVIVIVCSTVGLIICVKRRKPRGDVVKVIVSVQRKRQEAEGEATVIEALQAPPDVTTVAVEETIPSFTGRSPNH

Sequence of human HVEM mutant E65A expressed on cells (human) (Q92956 39-283 E65A): as the sequence (Q92956 39-283 Y47F) above, with F9Y, E27A counted along it
Sequence of human HVEM mutant K64A expressed on cells (human) (Q92956 39-283 K64A): as the sequence (Q92956 39-283 Y47F) above, with F9Y, K26A counted along it
Sequence of human HVEM (wild type) expressed on cells (human) (Q92956 39-283): as the sequence (Q92956 39-283 Y47F) above, with F9Y counted along it
Sequence of human HVEM mutant E76A expressed on cells (human) (Q92956 39-283 E76A): as the sequence (Q92956 39-283 Y47F) above, with F9Y, E38A counted along it
Sequence of human HVEM mutant Y61F expressed on cells (human) (Q92956 39-283 Y61F): as the sequence (Q92956 39-283 Y47F) above, with F9Y, Y23F counted along it
Sequence of human HVEM mutant R113A expressed on cells (human) (Q92956 39-283 R113A): as the sequence (Q92956 39-283 Y47F) above, with F9Y, R75A counted along it
Sequence of human HVEM mutant R62A expressed on cells (human) (Q92956 39-283 R62A): as the sequence (Q92956 39-283 Y47F) above, with F9Y, R24A counted along it
Sequence of human HVEM mutant S58A expressed on cells (human) (Q92956 39-283 S58A): as the sequence (Q92956 39-283 Y47F) above, with F9Y, S20A counted along it

B1: recombinant soluble human LIGHT truncated at G66 (ligand, from a related filing)
chain: GEMVTRLPDGPAGSWEQLIQERRSHEVNPAAHLTGANSSLTGSGGPLLWETQLGLAFLRGLSYHDGALVVTKAGYYYIYSKVQLGGVGCPLGLASTITHGLYKRTPRYPEELELLVSQQSPCGRATSSSRVWWDSSFLGGVVHLEAGEEVVVRVLDERLVRLRDGTRSYFGAFMV
Kd [1]: 13 nM
Kd [2]: 14 nM
Kd [3]: 19 nM
Kd [4]: 22 nM
Kd [5]: 17 nM
Kd [6]: 18 nM
Kd [7]: 18 nM
Kd [8]: 17 nM
Kd [9]: 14 nM
